Data taken from patent EP3244212A1.

How the values were obtained:
[1] = target: serum sIgE of the patients of the ELISA inhibition study (Example 3) (human); assay: ELISA inhibition: serum pre-incubated with soluble Ara h 2 (0.1, 1, 10 ug/ml); immobilised competitor Ara h 7.0201
[2] = target: serum sIgE of the patients of the ELISA inhibition study (Example 3) (human); assay: ELISA inhibition: serum pre-incubated with soluble Ara h 2 (0.1, 1, 10 ug/ml); immobilised competitor Ara h 6

B1: Ara h 2 isotype 2.0201, recombinant His6 fusion protein (protein)
chain: MSHHHHHHIEGRTMRQQWELQGDRRCQSQLERANLRPCEQHLMQKIQRDEDSYGRDPYSPSQDPYSPSQDPDRRDPYSPSPYDRRGAGSSQHQERCCNELNEFENNQRCMCEALQQIMENQSDRLQGRQQEQQFKRELRNLPQQCGLRAPQRCDLEVESGGRDRY
[1]
  % inhibition (median over sera): 16%
[2]
  % inhibition (median over sera): 43%
